The results in this text go back to article PMC7997880, “MED15 prion-like domain forms a coiled-coil responsible for its amyloid conversion and propagation” (Communications Biology, 2021).

The target in data set [1] is GFP-MED15PP (GFP-MED15CC with five Pro substitutions in the MED15 coiled-coil region). Kind of data set: synchronous light scattering (self-association / aggregation). To be noted: 5 μM protein, 9 hours at 37 °C without agitation in 20 mM Tris pH 7.5 and 150 mM NaCl; parent: est. 620; read off a plot.
For data set [2] the target is unchanged. Kind of data set: GFP fluorescence of supernatant fraction (self-association / aggregation). To be noted: 5 μM protein, 9 hours at 37 °C without agitation in 20 mM Tris pH 7.5 and 150 mM NaCl; parent: est. 0.50; read off a plot.
Data set [3] deals with the molecule itself. Kind of data set: SEC; 2 mg/ml purified protein on Superdex 200 HR 10/30; 20 mM TrisHCl pH 7.4, 150 mM NaCl, 10% glycerol. In general terms: SEC sorts molecules by how far they enter the pores of the column.

Regarding “GFP-MED15CC (human MED15 prion-like domain, MED15-PrLD, residues 141-316, fused at the C-terminus of GFP) MED15PP (five Pro substitutions at heptad 'a' positions; residues not printed in this figure)”, in data set [1], the response stood at 180 a.u. The other: Normalized GFP fluorescence (supernatant fraction) in data set [2] was 0.83.

B1: GFP-MED15CC (human MED15 prion-like domain, MED15-PrLD, residues 141-316, fused at the C-terminus of GFP) (domain or fragment)
chain: MAVVSTATPQTQLQLQQVALQQQQQQQQFQQQQQAALQQQQQQQQQQQFQAQQSAMQQQFQAVVQQQQQLQQQQQQQQHLIKLHHQNQQQIQQQQQQLQRIAQLQLQQQQQQQQQQQQQQQQALQAQPPIQQPPMQQPQPPPSQALPQQLQQMHHTQHHQPPPQPQQPPVAQNQPS
notes: Mediator complex subunit 15 (MED15), human, prion-like domain with the Q-rich coiled-coil and Pro-rich regions, residues 141-316; No cleavage step is described; Dimer by SEC, native PAGE and DLS; source: E. coli BL21 Rosetta, pET21b, purified from the soluble fraction (two HisTrap Ni steps, RNase treatment, PD10); not shown: GFP, N-terminal, kept
Turning to B1, the “stoichiometry N” value in data set [3] stood at 2.

The term stoichiometry N denotes a count of units in the complex or per binding partner.
